What was measured:
[1] = target: BrxR (untagged WT) (Acinetobacter sp. NEB394) (UniProt A0A7H8SL41); assay: EMSA; settings: EMSA: 20 mM Tris pH 7.9, 40 mM NaCl, 2.5% sucrose, 22 C, 30 min; 20 nM DNA (10 nM in Fig S6), 25-800 nM BrxR; 7% native gel in TBE
[2] = target: BrxR ('BREX Regulator') from Acinetobacter sp. NEB394, untagged (Acinetobacter sp. NEB394); assay: crystal structure; BrxR (125 uM) co-crystallized with 25 bp dsDNA target (150 uM), 2.3 Å, molecular replacement; 0.04 M citric acid, 20% PEG 3350, 60 mM Bis-Tris propane pH 6.4
[3] = target: BrxR ('BREX Regulator') from Acinetobacter sp. NEB394, untagged (Acinetobacter sp. NEB394); assay: SEC; elution profile of purified protein on size exclusion chromatography; conditions of this run not stated
[4] = target: BrxR (R47A) from Acinetobacter sp. NEB394 (Acinetobacter sp. NEB394); assay: as above
[5] = target: selenomethionyl (SeMet)-containing BrxR from Acinetobacter sp. NEB394 (Acinetobacter sp. NEB394); assay: crystal structure; apo BrxR, SeMet-derivatized protein, SAD phasing, 2.3 Å; crystals from 10% PEG3000, 0.1 M HEPES pH 7.3, 2% benzamidine-HCl

“GCGGAGTCCATCCAAACATCGGGAGATTTTGATCAGATATGTTTAACCTGCCCTCACAATACCGTAAAAATAATTTACTGTATATTCATTGTAGGGTAGTCTTGATCACATTGTTTATTGACCGATTGTTCTATGACAGCAGACAAGCATGAAGTGCTTCTCAGAATGAGGGCGATTGAGTTACTGGCCTACTGGGAAGGGCGTTTG (double strand) [BREX upstream region -109/+98 (~200 bp)]” showed a Kd [1] of 0.1 µM.
Substance “BrxR ('BREX Regulator') from Acinetobacter sp. NEB394, untagged (natural protein)” has a stoichiometry N [2] of 2 and a stoichiometry N [3] of 2.
“BrxR (R47A) from Acinetobacter sp. NEB394 (natural protein)” showed a stoichiometry N [4] of 2.
“selenomethionyl (SeMet)-containing BrxR from Acinetobacter sp. NEB394 (natural protein)” was tested, and the stoichiometry N [5] was 2.

Source: paper PMC9122589
